# Molecular target: Deg2 protease (Arabidopsis thaliana), mature Deg2 (Arabidopsis thaliana)
# Assay: SEC + other: dynamic light scattering
substance,measurement,value
"Deg2 protease (Arabidopsis thaliana), mature Deg2 (enzyme)",stoichiometry N,6
